Assay results taken from paper PMC314469, “Protein Interaction Networks by Proteome Peptide Scanning” (PLoS Biology, 2004).

Molecular target: T1, Yfr024 SH3 (LSB3_YEAST), P43603
T1 chain: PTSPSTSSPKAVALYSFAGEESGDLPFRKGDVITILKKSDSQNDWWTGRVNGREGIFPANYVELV
Experiment: SPOT array

Binder | normalised SPOT signal, Boehringer light units (BLU); mean over the file's lines of this peptide
NPMQKPVPFVPVLD [YKL182W 1009-1022] | 2450
NLYQRTTPAGPDPS [YOL019W 467-480] | 389
NPFVRINPNRPEAA [YBR136W 500-513] | 344
NIPTKSPPKSPKHK [YLL065W 94-107] | 518
NLSLRYAPNLPPVI [YHL035C 1327-1340] | 154
NLKTKSHPEVPRLD [YLR189C 152-165] | 327
NNSTRPIPAIPMDL [YJL133W 8-21] | 39600
NITEKSPPKSPKHK [YDR543C 77-90] | 187
NNLKKRPPTAPQRK [YPR171W 465-478] | 6960
NKIPKHLPADPIFS [YCR032W 1499-1512] | 835
NPIPKSVPLHPKSG [YEL019C 6-19] | 88.1
NKPKRKRPAPPKKK [YFR013W 78-91] | 568

Molecular target: T2, Boi1 SH3 (BOI1_YEAST), P38041
T2 chain: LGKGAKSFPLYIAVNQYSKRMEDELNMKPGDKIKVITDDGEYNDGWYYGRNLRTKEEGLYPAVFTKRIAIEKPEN
Experiment: SPOT array

Binder | normalised SPOT signal, Boehringer light units (BLU); mean over the file's lines of this peptide
NPMQKPVPFVPVLD [YKL182W 1009-1022] | 66.8
NLYQRTTPAGPDPS [YOL019W 467-480] | 585
NPFVRINPNRPEAA [YBR136W 500-513] | 444
NIPTKSPPKSPKHK [YLL065W 94-107] | 743
NLSLRYAPNLPPVI [YHL035C 1327-1340] | 360
NLKTKSHPEVPRLD [YLR189C 152-165] | 426
NNSTRPIPAIPMDL [YJL133W 8-21] | 203
NITEKSPPKSPKHK [YDR543C 77-90] | 3420
NNLKKRPPTAPQRK [YPR171W 465-478] | 2270
NKIPKHLPADPIFS [YCR032W 1499-1512] | 187
NPIPKSVPLHPKSG [YEL019C 6-19] | 225
NKPKRKRPAPPKKK [YFR013W 78-91] | 635

Molecular target: T3, Rvs167 SH3 (RV167_YEAST), P39743
T3 chain: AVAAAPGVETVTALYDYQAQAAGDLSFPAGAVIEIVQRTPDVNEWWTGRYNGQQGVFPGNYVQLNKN
Experiment: SPOT array

Binder | normalised SPOT signal, Boehringer light units (BLU); mean over the file's lines of this peptide
NPMQKPVPFVPVLD [YKL182W 1009-1022] | 284
NLYQRTTPAGPDPS [YOL019W 467-480] | 344
NPFVRINPNRPEAA [YBR136W 500-513] | 56.6
NIPTKSPPKSPKHK [YLL065W 94-107] | 64.5
NLSLRYAPNLPPVI [YHL035C 1327-1340] | 216
NLKTKSHPEVPRLD [YLR189C 152-165] | 1080
NNSTRPIPAIPMDL [YJL133W 8-21] | 58900
NITEKSPPKSPKHK [YDR543C 77-90] | 124
NNLKKRPPTAPQRK [YPR171W 465-478] | 6090
NKIPKHLPADPIFS [YCR032W 1499-1512] | 67.8
NPIPKSVPLHPKSG [YEL019C 6-19] | 7.3
NKPKRKRPAPPKKK [YFR013W 78-91] | 83.6

Molecular target: T4, Myo5 SH3 (MYO5_YEAST), Q04439
T4 chain: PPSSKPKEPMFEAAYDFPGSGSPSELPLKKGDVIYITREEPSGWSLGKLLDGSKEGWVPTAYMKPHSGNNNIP
Experiment: SPOT array

Binder | normalised SPOT signal, Boehringer light units (BLU); mean over the file's lines of this peptide
NPMQKPVPFVPVLD [YKL182W 1009-1022] | 420
NLYQRTTPAGPDPS [YOL019W 467-480] | 114
NPFVRINPNRPEAA [YBR136W 500-513] | 276
NIPTKSPPKSPKHK [YLL065W 94-107] | 12500
NLSLRYAPNLPPVI [YHL035C 1327-1340] | 779
NLKTKSHPEVPRLD [YLR189C 152-165] | 363
NNSTRPIPAIPMDL [YJL133W 8-21] | 247
NITEKSPPKSPKHK [YDR543C 77-90] | 292
NNLKKRPPTAPQRK [YPR171W 465-478] | 419
NKIPKHLPADPIFS [YCR032W 1499-1512] | 278
NPIPKSVPLHPKSG [YEL019C 6-19] | 364
NKPKRKRPAPPKKK [YFR013W 78-91] | 872

molecular target: Sho1 SH3 (SHO1_YEAST), P40073; experiment: SPOT array
Sequence (P40073 295-366): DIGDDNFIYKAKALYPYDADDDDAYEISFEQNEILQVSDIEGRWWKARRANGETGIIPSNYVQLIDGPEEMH

Binder | normalised SPOT signal, Boehringer light units (BLU); mean over the file's lines of this peptide
NPMQKPVPFVPVLD [YKL182W 1009-1022] | 191
NHIPPFPLRFSFAQ [532-545 Hypothetical ORF] | 184
NLYQRTTPAGPDPS [YOL019W 467-480] | 60.6
NPFVRINPNRPEAA [YBR136W 500-513] | 35.9
NIPTKSPPKSPKHK [YLL065W 94-107] | 53
NLSLRYAPNLPPVI [YHL035C 1327-1340] | 40.5
NANPFLPNKHPVTQ [38-51 Mitochondrial ribosomal protein MRPL25 (YmL25)] | 210
NLKTKSHPEVPRLD [YLR189C 152-165] | 104
NNSTRPIPAIPMDL [YJL133W 8-21] | 1770
MLIPNFPNKKLKLN | 415
MVLPPAPPKNSDPS [764-777 mitohcondrial RNA polymerase] | 141
NDDPVIPYKLSKDT [1037-1050 DNA replication helicase] | 201
NITEKSPPKSPKHK [YDR543C 77-90] | 74.8
NAPPYVPQRSKQPD [165-178 " Radiation repair protein, putative DNA helicase"] | 143
MVTPSKPPKKSVGF [147-160 Hypothetical ORF] | 749
NNLKKRPPTAPQRK [YPR171W 465-478] | 64.6
NKIPKHLPADPIFS [YCR032W 1499-1512] | 67.2
MVRPAPPRRADPEG [11-24 Hypothetical ORF] | 608
MEYPFKPPKMQFDT [60-73 ubiquitin-conjugating enzyme] | 164
NPIPKSVPLHPKSG [YEL019C 6-19] | 28.7
MSLPVTPVKSKVSS [50-63 Putative participant in 3' mRNA processing] | 284
MKAPKMPDKHRDNY [923-936 similar to RNA helicases] | 181
NEYPSKPPKVKFPA [66-79 ubiquitin-conjugating enzyme] | 330
NKPKRKRPAPPKKK [YFR013W 78-91] | 88.2

Molecular target: T5, Boi2 SH3 (BOI2_YEAST), P39969
T5 chain: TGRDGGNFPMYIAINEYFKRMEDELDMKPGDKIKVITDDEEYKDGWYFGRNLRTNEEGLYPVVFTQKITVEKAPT
Experiment: SPOT array

Binder | normalised SPOT signal, Boehringer light units (BLU); mean over the file's lines of this peptide
NPMQKPVPFVPVLD [YKL182W 1009-1022] | 50.2
NLYQRTTPAGPDPS [YOL019W 467-480] | 126
NPFVRINPNRPEAA [YBR136W 500-513] | 47.2
NIPTKSPPKSPKHK [YLL065W 94-107] | 1.2
NLSLRYAPNLPPVI [YHL035C 1327-1340] | 25.4
NLKTKSHPEVPRLD [YLR189C 152-165] | 142
NNSTRPIPAIPMDL [YJL133W 8-21] | 20.8
NITEKSPPKSPKHK [YDR543C 77-90] | 18.7
NNLKKRPPTAPQRK [YPR171W 465-478] | 152
NKIPKHLPADPIFS [YCR032W 1499-1512] | 21
NPIPKSVPLHPKSG [YEL019C 6-19] | 7.9
NKPKRKRPAPPKKK [YFR013W 78-91] | 22.9

Molecular target: T6, Yhr016c SH3 (YSC84_YEAST), P32793
T6 chain: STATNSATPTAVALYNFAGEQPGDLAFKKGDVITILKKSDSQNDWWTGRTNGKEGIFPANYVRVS
Experiment: SPOT array

Binder | normalised SPOT signal, Boehringer light units (BLU); mean over the file's lines of this peptide
NPMQKPVPFVPVLD [YKL182W 1009-1022] | 299
NLYQRTTPAGPDPS [YOL019W 467-480] | 1140
NPFVRINPNRPEAA [YBR136W 500-513] | 73.5
NIPTKSPPKSPKHK [YLL065W 94-107] | 198
NLSLRYAPNLPPVI [YHL035C 1327-1340] | 135
NLKTKSHPEVPRLD [YLR189C 152-165] | 2740
NNSTRPIPAIPMDL [YJL133W 8-21] | 44100
NITEKSPPKSPKHK [YDR543C 77-90] | 110
NNLKKRPPTAPQRK [YPR171W 465-478] | 4310
NKIPKHLPADPIFS [YCR032W 1499-1512] | 90.5
NPIPKSVPLHPKSG [YEL019C 6-19] | 467
NKPKRKRPAPPKKK [YFR013W 78-91] | 81.6
